Measured values taken from US20160046921A1.
Blank lines part the entries; values can stand above or below the binder they belong to.

Tests used:
[1] = target: T1, cys-gly-conjugate (compound of formula FIII)
T1 chain: CG

Pro-Gly = target: T2, Pro-Gly
T2 chain: PG

[2] = target: cys-gly-conjugate (compound of formula FIII); test: cell-based or functional assay
Ala-Ala = target: T3, Ala-Ala
T3 chain: AA

Ala-Gly = target: T4, Ala-Gly
T4 chain: AG

Gly-Gly = target: T5, Gly-Gly
T5 chain: GG

[3] = target: T6, H-Cys(Bzl)-Gly-OH (S-benzyl-Cys-Gly)
T6 chain: CG

Z-Gly-Gly = target: T7, Z-Gly-Gly
T7 chain: GG

B1: β-lyase from Corynebacterium sp. Ax20 (cystathionine-β-lyase, metC gene product) (protein)
chain: MQFSNLDTLRTRGTRKWTQFDDDVIPMFVAESDFPTAPAIKEAIIDACEREMFGYTPAPHAHHLGEAVADFYDWRYGWRPDAAKIFPVADVVRGVLLAIQYFTDGDVIVPVPAYFPFLPIAEAAGRNRIDISSDKGLEGGLDMAEVEEAFKNGAGSIIVTNPFNPGGWMFTSEELDQICDIARRYKGRVLVDEIHAPLTYGKRHVCAAANNPDVCITVTATSKAWNVAGLKCAQMIFTNDEDVKTWNAINPVAKDGVGTLGIIAAEAAYESGREHLDWQVEQLKANRDWLVENLPSLIPGIRFEIPDATYLMFLDFKDTKLGVDKPAAYLLKHARVALSEGVDFGPGGEHRARMNFATSPEILKEATERIARAIEVV
release of 3-sulfanyl-3-methyl-hexanol from cys-gly-conjugate [mM] (gas chromatography) [1]: < 0.03 mM

release of 3-sulfanyl-3-methyl-hexanol from the Cys-Gly-conjugate [mM]; 10 fold dilution of clear cell lysate, + β-lyase [2]: 1 mM
release of 3-sulfanyl-3-methyl-hexanol from the Cys-Gly-conjugate [mM]; 100 fold dilution of clear cell lysate, + β-lyase [2]: 0.92 mM
release of 3-sulfanyl-3-methyl-hexanol from the Cys-Gly-conjugate [mM]; 1000 fold dilution of clear cell lysate, + β-lyase [2]: 0.46 mM
B2: Ax20 peptidase (peptidase from Corynebacterium sp. Ax20, SEQ ID NO:2), recombinant, without histidine tag (enzyme)
chain: MSNDKAATSTNFNLTPNRERIFQELSELISHYSPHSMPEHADTHEEAAKWVTAKLEELGLDVTRHPTVDDADTIIGVKEPVGDAPTILLYSHYDVVPAQNPAVWTNDPLELDERDGRWYGRGAADCKGNVIMHLEALRMVQENGGTDLGLKVVMEGSEELGGEDGLGKLIDANPELFTADVIFIGDGGNVAVGIPTLTTHLRGGAQLRFKVDTLEGPVHSGGWGGAAPDAAHALIRIIDSFFDEHGRTTIEGVDTTAKWEGDPYDRETFRKDARVLDGVQLLGTVDDEPADMVWARPAITVIGFTSVPVEDATNIVNPTAEAQFNLRVPAPQSAAEVAKKVEEQIRARAPWGAKVEVSITGVNEPFSTDPNGPAVQHFGKCLQDAYGAEHLTVVGTGGSIPLTVTLQKHFPDAEFALYGVADPAANIHGVDESVDPTEIEHVAIAEAEFLLTYGK
release of a free NH2 group (fluorescamine derivatisation) (Pro-Gly): Cleavage of the peptide substrate Pro-Gly by addition of the recombinant Ax20 peptidase (SEQ ID NO: 2) released a unique free NH2 group

release of 3-sulfanyl-3-methyl-hexanol from the Cys-Gly-conjugate [mM]; 10 fold dilution of clear cell lysate, + β-lyase [2]: 0.94 mM
release of 3-sulfanyl-3-methyl-hexanol from the Cys-Gly-conjugate [mM]; 100 fold dilution of clear cell lysate, + β-lyase [2]: 0.88 mM
release of 3-sulfanyl-3-methyl-hexanol from the Cys-Gly-conjugate [mM]; 1000 fold dilution of clear cell lysate, + β-lyase [2]: 0.36 mM
B3: Ax20 peptidase with histidine tag (SEQ ID NO:2 ligated to a 6x Histidine-Tag), recombinant (enzyme, not shown: small tags and cut ends)
chain: B2 chain
Cleavage (thin layer chromatography) (Ala-Ala): ++
Cleavage (thin layer chromatography) (Ala-Gly): ++
Cleavage (thin layer chromatography) (Gly-Gly): +
Cleavage (thin layer chromatography) [3]: +++
Cleavage (thin layer chromatography) (Pro-Gly): +
Cleavage (thin layer chromatography) (Z-Gly-Gly): -
Cleavage (thin layer chromatography) [1]: +++
